Assays:
[1] = biological target: MOZ PHD1/2 fingers (aa 207-318) (human), Q92794; assay: other fluorescence titration
[2] = biological target: T1, MORF PHD1/2 fingers (aa 211-329) (human), Q8WYB5; assay: other fluorescence titration
T1 chain: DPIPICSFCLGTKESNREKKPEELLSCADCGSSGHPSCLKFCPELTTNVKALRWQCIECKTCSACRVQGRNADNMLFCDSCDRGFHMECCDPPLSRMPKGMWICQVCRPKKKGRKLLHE

MOZ PHD1/2 fingers (aa 207-318) (human), Q92794, sequence (Q92794 207-318): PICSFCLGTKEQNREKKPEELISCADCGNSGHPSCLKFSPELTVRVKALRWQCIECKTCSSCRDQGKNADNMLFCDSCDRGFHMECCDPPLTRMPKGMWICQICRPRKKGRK

ARTKQTARKSTG (modifications not checked) [unmodified histone H3 peptide (length not stated for the experiment)] gave a Kd [1] of 3.9 µM and a Kd [2] of 4.3 µM.
